Legend:
[1] = target: DTX3L D1 domain (human); assay: cross-linking
[2] = target: DTX3L D2 domain (human); assay: cross-linking

| stoichiometry N [1] | stoichiometry N [2] | Substance |
| --- | --- | --- |
| 2 | – | DTX3L D1 domain (domain or fragment) |
| – | 4 | DTX3L D2 domain (domain or fragment) |

From publication doi:10.1101/2021.06.14.448324
